Results as given in the Human Domainome abundance scans (Beltran et al. 2025).
± gives the uncertainty stated by the source.

Test: abundance fitness (aPCA) (normalised: wild type 0, dead -1); higher = more abundant; growth selection in yeast, the domain comes from the species named
Conditions: Homo sapiens

“DnaJ homolog subfamily B member 1 Q27I, P25685” and “DnaJ homolog subfamily B member 1 Q27K, P25685” are within error of each other in abundance fitness: -0.057 ± 0.12 for the first, -0.021 ± 0.17 for the second.

“DnaJ homolog subfamily B member 1 Q27L, P25685” and “DnaJ homolog subfamily B member 1 Q27M, P25685” are within error of each other in abundance fitness: -0.121 ± 0.094 for the first, -0.054 ± 0.14 for the second.

“DnaJ homolog subfamily B member 1 Q27N, P25685” and “DnaJ homolog subfamily B member 1 Q27R, P25685” are within error of each other in abundance fitness: -0.14 ± 0.12 for the first, -0.215 ± 0.066 for the second.

“DnaJ homolog subfamily B member 1 Q27T, P25685” and “DnaJ homolog subfamily B member 1 Q27W, P25685” are within error of each other in abundance fitness: -0.266 ± 0.12 for the first, -0.064 ± 0.098 for the second.

“DnaJ homolog subfamily B member 1 Q27Y, P25685” and “DnaJ homolog subfamily B member 1 R13A, P25685” are within error of each other in abundance fitness: -0.056 ± 0.28 for the first, -0.148 ± 0.081 for the second.

“DnaJ homolog subfamily B member 1 R13C, P25685” and “DnaJ homolog subfamily B member 1 R13D, P25685” are within error of each other in abundance fitness: -0.262 ± 0.12 for the first, -0.117 ± 0.22 for the second.

“DnaJ homolog subfamily B member 1 R13E, P25685” and “DnaJ homolog subfamily B member 1 R13F, P25685” are within error of each other in abundance fitness: -0.142 ± 0.089 for the first, -0.15 ± 0.1 for the second.

“DnaJ homolog subfamily B member 1 R13G, P25685” and “DnaJ homolog subfamily B member 1 R13H, P25685” are within error of each other in abundance fitness: -0.305 ± 0.064 for the first, -0.191 ± 0.16 for the second.

“DnaJ homolog subfamily B member 1 R13I, P25685” and “DnaJ homolog subfamily B member 1 R13K, P25685” are within error of each other in abundance fitness: -0.221 ± 0.15 for the first, -0.097 ± 0.089 for the second.

“DnaJ homolog subfamily B member 1 R13L, P25685” and “DnaJ homolog subfamily B member 1 R13M, P25685” are within error of each other in abundance fitness: -0.191 ± 0.066 for the first, -0.219 ± 0.092 for the second.

“DnaJ homolog subfamily B member 1 R13N, P25685” and “DnaJ homolog subfamily B member 1 R13P, P25685” are within error of each other in abundance fitness: -0.091 ± 0.11 for the first, -0.177 ± 0.088 for the second.

“DnaJ homolog subfamily B member 1 R13Q, P25685” and “DnaJ homolog subfamily B member 1 R13S, P25685” are within error of each other in abundance fitness: 0.048 ± 0.2 for the first, -0.182 ± 0.056 for the second.

“DnaJ homolog subfamily B member 1 R13T, P25685” and “DnaJ homolog subfamily B member 1 R13V, P25685” are within error of each other in abundance fitness: -0.138 ± 0.089 for the first, -0.157 ± 0.065 for the second.

“DnaJ homolog subfamily B member 1 R13W, P25685” and “DnaJ homolog subfamily B member 1 R13Y, P25685” are within error of each other in abundance fitness: -0.434 ± 0.08 for the first, -0.279 ± 0.091 for the second.

First: DnaJ homolog subfamily B member 1 R25A, P25685
Second: DnaJ homolog subfamily B member 1 R25C, P25685
The abundance fitness of the first is higher: 0.011 ± 0.079 for the first, -0.22 ± 0.14 for the second.

Going from “DnaJ homolog subfamily B member 1 R25D, P25685” to “DnaJ homolog subfamily B member 1 R25E, P25685”, the abundance fitness rises from -0.15 ± 0.13 to 0.173 ± 0.082.

“DnaJ homolog subfamily B member 1 R25F, P25685” and “DnaJ homolog subfamily B member 1 R25G, P25685” are within error of each other in abundance fitness: -0.199 ± 0.12 for the first, -0.007 ± 0.12 for the second.

“DnaJ homolog subfamily B member 1 R25H, P25685” and “DnaJ homolog subfamily B member 1 R25I, P25685” are within error of each other in abundance fitness: -0.047 ± 0.11 for the first, 0.008 ± 0.13 for the second.

“DnaJ homolog subfamily B member 1 R25K, P25685” and “DnaJ homolog subfamily B member 1 R25M, P25685” are within error of each other in abundance fitness: -0.022 ± 0.057 for the first, -0.078 ± 0.12 for the second.

“DnaJ homolog subfamily B member 1 R25N, P25685” and “DnaJ homolog subfamily B member 1 R25P, P25685” are within error of each other in abundance fitness: -0.144 ± 0.29 for the first, -0.462 ± 0.12 for the second.

First: DnaJ homolog subfamily B member 1 R25S, P25685
Second: DnaJ homolog subfamily B member 1 R25T, P25685
The abundance fitness of the first is higher: 0.018 ± 0.076 for the first, -0.181 ± 0.11 for the second.

“DnaJ homolog subfamily B member 1 R25V, P25685” and “DnaJ homolog subfamily B member 1 R25W, P25685” are within error of each other in abundance fitness: 0.003 ± 0.062 for the first, -0.116 ± 0.092 for the second.

“DnaJ homolog subfamily B member 1 R26A, P25685” and “DnaJ homolog subfamily B member 1 R26C, P25685” are within error of each other in abundance fitness: 0.056 ± 0.18 for the first, 0.064 ± 0.11 for the second.

First: DnaJ homolog subfamily B member 1 R26D, P25685
Second: DnaJ homolog subfamily B member 1 R26F, P25685
The abundance fitness of the first is higher: 0.327 ± 0.25 for the first, -0.032 ± 0.094 for the second.

Going from “DnaJ homolog subfamily B member 1 R26G, P25685” to “DnaJ homolog subfamily B member 1 R26H, P25685”, the abundance fitness rises from -0.117 ± 0.094 to 0.163 ± 0.11.

“DnaJ homolog subfamily B member 1 R26I, P25685” and “DnaJ homolog subfamily B member 1 R26K, P25685” are within error of each other in abundance fitness: 0.071 ± 0.16 for the first, 0.052 ± 0.18 for the second.

“DnaJ homolog subfamily B member 1 R26L, P25685” and “DnaJ homolog subfamily B member 1 R26M, P25685” are within error of each other in abundance fitness: 0.068 ± 0.075 for the first, -0.121 ± 0.13 for the second.

Compared with “DnaJ homolog subfamily B member 1 R26N, P25685”, “DnaJ homolog subfamily B member 1 R26P, P25685” is lower in abundance fitness: 0.102 ± 0.17 for the first, -0.628 ± 0.1 for the second.

“DnaJ homolog subfamily B member 1 R26Q, P25685” and “DnaJ homolog subfamily B member 1 R26S, P25685” are within error of each other in abundance fitness: -0.019 ± 0.22 for the first, 0.064 ± 0.068 for the second.

“DnaJ homolog subfamily B member 1 R26T, P25685” and “DnaJ homolog subfamily B member 1 R26V, P25685” are within error of each other in abundance fitness: -0.128 ± 0.12 for the first, 0.03 ± 0.15 for the second.

Compared with “DnaJ homolog subfamily B member 1 R26W, P25685”, “DnaJ homolog subfamily B member 1 R26Y, P25685” is lower in abundance fitness: -0.023 ± 0.081 for the first, -0.344 ± 0.19 for the second.

“DnaJ homolog subfamily B member 1 R30A, P25685” and “DnaJ homolog subfamily B member 1 R30C, P25685” are within error of each other in abundance fitness: 0.033 ± 0.072 for the first, 0.042 ± 0.16 for the second.

“DnaJ homolog subfamily B member 1 R30E, P25685” and “DnaJ homolog subfamily B member 1 R30F, P25685” are within error of each other in abundance fitness: 0.047 ± 0.24 for the first, -0.024 ± 0.089 for the second.

“DnaJ homolog subfamily B member 1 R30G, P25685” and “DnaJ homolog subfamily B member 1 R30H, P25685” are within error of each other in abundance fitness: -0.056 ± 0.11 for the first, -0.125 ± 0.088 for the second.

“DnaJ homolog subfamily B member 1 R30I, P25685” and “DnaJ homolog subfamily B member 1 R30K, P25685” are within error of each other in abundance fitness: -0.036 ± 0.095 for the first, -0.086 ± 0.098 for the second.

“DnaJ homolog subfamily B member 1 R30L, P25685” and “DnaJ homolog subfamily B member 1 R30M, P25685” are within error of each other in abundance fitness: 0.081 ± 0.067 for the first, 0.104 ± 0.089 for the second.

“DnaJ homolog subfamily B member 1 R30N, P25685” and “DnaJ homolog subfamily B member 1 R30Q, P25685” are within error of each other in abundance fitness: 0.014 ± 0.1 for the first, 0.087 ± 0.11 for the second.

“DnaJ homolog subfamily B member 1 R30S, P25685” and “DnaJ homolog subfamily B member 1 R30T, P25685” are within error of each other in abundance fitness: -0.024 ± 0.073 for the first, -0.026 ± 0.1 for the second.

First: DnaJ homolog subfamily B member 1 R30Y, P25685
Second: DnaJ homolog subfamily B member 1 R59A, P25685
The abundance fitness of the first is higher: 0.131 ± 0.087 for the first, -0.051 ± 0.086 for the second.

“DnaJ homolog subfamily B member 1 R59C, P25685” and “DnaJ homolog subfamily B member 1 R59D, P25685” are within error of each other in abundance fitness: -0.128 ± 0.14 for the first, 0.095 ± 0.21 for the second.

“DnaJ homolog subfamily B member 1 R59E, P25685” and “DnaJ homolog subfamily B member 1 R59F, P25685” are within error of each other in abundance fitness: 0.026 ± 0.099 for the first, -0.045 ± 0.15 for the second.

“DnaJ homolog subfamily B member 1 R59G, P25685” and “DnaJ homolog subfamily B member 1 R59H, P25685” are within error of each other in abundance fitness: -0.065 ± 0.084 for the first, -0.167 ± 0.11 for the second.

“DnaJ homolog subfamily B member 1 R59I, P25685” and “DnaJ homolog subfamily B member 1 R59K, P25685” are within error of each other in abundance fitness: -0.232 ± 0.15 for the first, -0.104 ± 0.11 for the second.

“DnaJ homolog subfamily B member 1 R59L, P25685” and “DnaJ homolog subfamily B member 1 R59M, P25685” are within error of each other in abundance fitness: -0.186 ± 0.099 for the first, -0.256 ± 0.19 for the second.

First: DnaJ homolog subfamily B member 1 R59N, P25685
Second: DnaJ homolog subfamily B member 1 R59P, P25685
The abundance fitness of the first is higher: -0.068 ± 0.14 for the first, -0.4 ± 0.15 for the second.

“DnaJ homolog subfamily B member 1 R59Q, P25685” and “DnaJ homolog subfamily B member 1 R59S, P25685” are within error of each other in abundance fitness: -0.194 ± 0.13 for the first, -0.036 ± 0.081 for the second.

“DnaJ homolog subfamily B member 1 R59T, P25685” and “DnaJ homolog subfamily B member 1 R59V, P25685” are within error of each other in abundance fitness: 0.07 ± 0.1 for the first, -0.059 ± 0.071 for the second.

Going from “DnaJ homolog subfamily B member 1 R59W, P25685” to “DnaJ homolog subfamily B member 1 R61A, P25685”, the abundance fitness falls from -0.186 ± 0.14 to -0.596 ± 0.16.

Compared with “DnaJ homolog subfamily B member 1 R61C, P25685”, “DnaJ homolog subfamily B member 1 R61D, P25685” is lower in abundance fitness: -0.325 ± 0.15 for the first, -0.668 ± 0.18 for the second.

First: DnaJ homolog subfamily B member 1 R61E, P25685
Second: DnaJ homolog subfamily B member 1 R61F, P25685
The abundance fitness of the first is higher: -0.362 ± 0.11 for the first, -0.756 ± 0.18 for the second.

“DnaJ homolog subfamily B member 1 R61G, P25685” and “DnaJ homolog subfamily B member 1 R61I, P25685” are within error of each other in abundance fitness: -0.406 ± 0.1 for the first, -0.584 ± 0.13 for the second.

Substance “DnaJ homolog subfamily B member 1 R61K, P25685” has an abundance fitness of -0.247 ± 0.16.
